According to PMC4402506:

Experiments:
Test in all cases: filter binding
Conditions in all cases: Nitrocellulose filter binding, 0.5 ml, 37 C, 30-60 min, then agarose gel. Topo IV: 40 mM Tris-HCl pH 7.5, 6 mM MgCl2, 100 mM KOAc, 1 mM DTT, 0.1 mM EDTA
[1] = tested on: Topo IV (ParC+ParE) (Escherichia coli)
[2] = tested on: EcoRV
[3] = tested on: Tfam (human)
[4] = tested on: ntop1 Y723F (nuclear topoisomerase I) (human)
[5] = tested on: top1mt Y559F (mitochondrial topoisomerase I) (human)
[6] = tested on: RecQ (Escherichia coli)

pBR322, negatively supercoiled topoisomer dLk about -23 (unresolved band below -10)
binding signal (fold Ka vs relaxed) [1]: 5

pBR322, relaxed closed circular (dLk 0; dLk -1 as reference for Topo IV and Tfam)
binding signal (Ka ratio (reference dLk -1)) [1]: 1 | binding signal (Ka ratio (reference dLk 0)) [2]: 1 | binding signal (Ka ratio (reference dLk -1)) [3]: 1 | binding signal (Ka ratio (reference dLk 0)) [4]: 1 | binding signal (Ka ratio (reference dLk 0)) [5]: 1 | binding signal (Ka ratio (reference dLk 0)) [6]: 1

pBR322, nicked (open circular)
binding signal (Ka nicked/Ka relaxed) ([4]; nick, position undefined): 8.6
